The values below come from the supplement of paper PMC9170038.

This data set concerns MS2 coat protein. Put plainly: apparent KD of MS2 coat protein; higher = weaker reporter binding. The conditions noted are these: Eterna round: R107. In outline: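 Designed RNA switches were transcribed on-chip from Illumina sequencing clusters. SNAP-549-labelled MS2 coat protein was titrated onto them in twofold steps from 0.7 or 1.5 nM to 3 µM in 100 mM Tris-HCl pH 7.5, 80 mM KCl, 4 mM MgCl2, either without or with constant ligand. Apparent KD reflects the per-design median of normalised cluster binding-curve fits.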

[1] abbreviates: input ligand: theophylline 20 uM.
Where [2] appears, read: input ligand: theophylline 2 mM.
[3] abbreviates: input ligand: tryptophan 2.4 mM.

For the sequence “GCCUCCAGCCGAAGGAGCGCUAGAAGGUGACAUGAGGAUCACCCAUGUGUGUGAUGUGGCUAGCAGGUAGGUCGCGGAGGAGGUU [Exclusion - Arginine B (Freestyle 20)]”, the “apparent KD of MS2 coat protein” value is, setting by setting: (input ligand: arginine 13.2 mM) 62.7 nM; (input ligand: none) 68.5 nM; under setting [1], 133 nM; under setting [2], 120 nM; under setting [3], 89.8 nM.

Turning to “GCGAUGGAGCGAAGGAGCGGCUAUCACCGACAAAACAUGAGGAUCACCCAUGUUGGCAGUGGCCAGGUAGGUCGCGCUCCAUCGC [EAB NP+V+V2 #8]”, the “apparent KD of MS2 coat protein” value stood at 8.17 nM (input ligand: arginine 13.2 mM); 11.4 nM (input ligand: none); 12.3 nM under setting [1]; 10.8 nM under setting [2]; 8.57 nM under setting [3].

Consider “GCUAGGUCAUCGGCCGCCACUAACGAAGGUUCGAACAUGAGGAUCACCCAUGUGCCACAUGCGCAUAGGACCGGGAUGACCUAGC [SSTB NP+V+V2 #7 +-Same Structure]”, for which the “apparent KD of MS2 coat protein” value was 13.8 nM (input ligand: arginine 13.2 mM); 17.3 nM (input ligand: none); 26.2 nM under setting [1]; 20.8 nM under setting [2]; 11.4 nM under setting [3].

In the case of “GCUAGGUCAUCGGCCGCCACUAACGAUGGCUCCAACAUGAGGAUCACCCAUGUGCCACAUGCGCAUAGGACCGGGAUGACCUAGC [SSTB NP+V+V2 #3]”, the “apparent KD of MS2 coat protein” value was found to be 11.3 nM (input ligand: arginine 13.2 mM), 16.2 nM under setting [1] and 14.1 nM under setting [2].

As for “GCUGCCAUACGAAGGAGCGCUGCUGCGAUGUGGCGAACAUGAGGAUCACCCAUGUGGCAGCAGCAGGUAGGUCGCGUAUGGCAGC [#01 Exclusion - Arginine B]”, the “apparent KD of MS2 coat protein” value turned out to be 131 nM (input ligand: arginine 13.2 mM); 144 nM (input ligand: none); 489 nM under setting [1]; 259 nM under setting [2]; 198 nM under setting [3].

For the sequence “GCUGUAAGUGCAGAUACCAGCAGGUGAUAUUUCUAAUGACAUGAGGAUCACCCAUGUAACUGCCCUUGGCAGCUGCACUUACAGC [SSTHB #8]”, the “apparent KD of MS2 coat protein” value reads like this: (input ligand: arginine 13.2 mM) 48.5 nM; under setting [1], 32.1 nM; under setting [3], 59.6 nM.

“GCUUGGGUGGCCCAGCCCUGGCAGGGCGAUACCAGCACGGUAACGUGCCCUUGGCAGCGCACAUGAGGAUCACCCAUGUGGUGCG [#1 Exclusion - Theophylline A Attempt #27 (HarryS)]”: the “apparent KD of MS2 coat protein” value reads like this: (input ligand: arginine 13.2 mM) 52.8 nM; under setting [1], 161 nM; under setting [3], 112 nM.

Take “GCUUGGGUGGCCCAGCCCUGGCAGGGCGAUACCAGCCCGGUAACGGGCCCUUGGCAGCGCACAUGAGGAUCACCCAUGUGGUGCG [#1 Exclusion - Theophylline A Attempt #28 (HarryS)]”: the “apparent KD of MS2 coat protein” value turned out to be 22.4 nM (input ligand: arginine 13.2 mM); 52.4 nM (input ligand: none); 60.3 nM under setting [1]; 85 nM under setting [2]; 44.9 nM under setting [3].

Turning to “GGACUAACCAGAAGGAGCGACACGCAGAAACUGCAAAAUCCUCCGCACGAGGAUCACCCGUGUCAGGUAGGUCGCUGGUUAGUCG”, the “apparent KD of MS2 coat protein” value came out at 38.6 nM (input ligand: arginine 13.2 mM); 54.3 nM (input ligand: none); 63.6 nM under setting [1]; 60.2 nM under setting [2]; 49.7 nM under setting [3].

For the sequence “GGACUAACCAGAAGGAGCGACACGCAGAAACUGCAAAUUCCUCCGCACGAGGAUCACCCGUGUCAGGUAGGUCGCUGGUUAGUCG [ArgBX 28]”, the “apparent KD of MS2 coat protein” value was 22.9 nM (input ligand: arginine 13.2 mM); 19.4 nM (input ligand: none); 33.2 nM under setting [1]; 23.5 nM under setting [2]; 22.4 nM under setting [3].

On to “GGACUAACCAGAAGGAGCGGCACAAAGCAGAAACUGCAUCCUCCGCACGAGGAUCACCCGUGUCAGGUAGGUCGCUGGUUAGUCG [ArgBX 28]”, for which the “apparent KD of MS2 coat protein” value is 46.2 nM (input ligand: arginine 13.2 mM); 57.5 nM (input ligand: none); 70.6 nM under setting [1]; 69.5 nM under setting [2]; 62 nM under setting [3].

As for “GGACUCGUCACGGCCGCCACUGCGGUGGUGUGACAUGAGGAUCACCCAUGUUGUCAUGCGGCCCUUAGGACCGGGUGUCGCUUCC [#1 Exclusion - Tryptophan B Attempt #24 (HarryS)]”, the “apparent KD of MS2 coat protein” value (input ligand: arginine 13.2 mM) was 124 nM, the “apparent KD of MS2 coat protein” value under setting [1] was determined as 221 nM and the “apparent KD of MS2 coat protein” value under setting [2] is 336 nM.

“GGAGCUACGUCGGCCGCCACUAGCGGUUAUUACGUGUACAUGAGGAUCACCCAUGUAAUAUGGCUUAGGACCGGGACGUAGCUCC [Wolverine]”: the “apparent KD of MS2 coat protein” value is, setting by setting: (input ligand: arginine 13.2 mM) 21 nM; under setting [1], 29 nM; under setting [2], 27.8 nM.

Regarding “GGAUAGAUAGGAGAUACCAGACACAUUAACAUGAGGAUCACCCAUGUGUCUGCACUAAGUGUCCCUUGGCAGCUCGGAGAUCUGA [Same State - Theophylline B]”, the “apparent KD of MS2 coat protein” value (input ligand: arginine 13.2 mM) worked out at 34.2 nM; the “apparent KD of MS2 coat protein” value (input ligand: none) turned out to be 45.9 nM; the “apparent KD of MS2 coat protein” value under setting [1] stood at 44.2 nM; the “apparent KD of MS2 coat protein” value under setting [2] amounted to 30.6 nM; the “apparent KD of MS2 coat protein” value under setting [3] is 31.9 nM.

On to “GGAUAGGACACGGCCGCCACUAGCUAGGAUACUAGCAACAUUUCCUCACUUGAGGAUCACCCAAGUAGGACCGGGUGUCCUAUCG”, for which the “apparent KD of MS2 coat protein” value is, setting by setting: (input ligand: arginine 13.2 mM) 95.2 nM; (input ligand: none) 162 nM; under setting [1], 250 nM; under setting [2], 160 nM; under setting [3], 182 nM.

As to “GGAUAGGACACGGCCGCCACUGCCUAGGAUACUAGAAACAUUUCCUCACAUGAGGAUCACCCAUGUAGGACCGGGUGUCCUAUCG”, the “apparent KD of MS2 coat protein” value turned out to be 74.9 nM (input ligand: arginine 13.2 mM), 161 nM under setting [1] and 121 nM under setting [2].

“GGAUAGGACAGAAGGAGCGACAUCGCCGAAAGGCUGGUAAGAUCACAUGAGGAUCACCCAUGUCAGGUAGGUCGCUGUCCUAUCG [ArgXB 11 #Zipper #MS2Left #StaticStem #Blueprint]”: the “apparent KD of MS2 coat protein” value reads like this: (input ligand: arginine 13.2 mM) 92.2 nM; (input ligand: none) 283 nM; under setting [1], 360 nM; under setting [2], 627 nM; under setting [3], 308 nM.
